As usually defined, the Kd is the free concentration of one partner at which half of the binding sites on the other are occupied at equilibrium, for simple one-to-one binding. The low end stands for higher affinity, the high end for lower affinity.

The results in this text go back to article PMC10497828 (2023).

Assay [1] addresses amyloid beta monomer (Homo sapiens, UniProt P05067). Put plainly: saturation binding/Scatchard.
Assay [2] deals with amyloid beta oligomers (Homo sapiens, UniProt P05067). The assay can be described thus: saturation binding/Scatchard.
amyloid beta oligomers, sequence (P05067 672-713): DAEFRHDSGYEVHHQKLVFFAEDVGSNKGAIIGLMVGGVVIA

amyloid beta monomer, sequence (P05067 672-713): as above

B1: BP (VEGF-derived peptide) (protein)
chain: MTDRQTDTAPSPSYHLLPGRRRTVDAAASRGQGPEPAPGGGVEGVGARGVALKLFVQLLGCSRFGGAVVRAGEAEPSGAARSASSGREEPQPEEGEEEEEKEEERGPQWRLGARKPGSWTGEAAVCADSAPAARAPQALARASGRGGRVARRGAEESGPPHSPSRRGSASRAGPGRASETMNFLLSWVHWSLALLLYLHHAKWSQAAPMAEGGGQNHHEVVKFMDVYQRSYCHPIETLVDIFQEYPDEIEYIFKPSCVPLMRCGGCCNDEGLECVPTEESNITMQIMRIKPHQGQHIGEMSFLQHNKCECRPKKDRARQEKKSVRGKGKGQKRKRKKSRYKSWSVPCGPCSERRKHLFVQDPQTCKCSCKNTDSRCKARQLELNERTCRCDKPRR
For the molecule B1, the Kd in assay [1] was determined as 19 µM; in assay [2], 0.012 µM.
